Measurements published in US20150074844A1 (PURDUE RESEARCH FOUNDATION, published 2015).

B1: PYL11-nLUC (receptor)
chain: METSQKYHTCGSTLVQTIDAPLSLVWSILRRFDNPQAYKQFVKTCNLSSGDGGEGSVREVTVVSGLPAEFSRERLDELDDESHVMMISIIGGDHRLVNYRSKTMAFVAADTEEKTVVVESYVVDVPEGNSEEETTSFADTIVGFNLKSLAKLSERVAHLKL
notes: LUC complementation assay in protoplasts; also called PYLs-nLUC; not shown: N-terminal domain of firefly luciferase
B2: c-myc-tagged PYL13 (other)
chain: MESSKQKRCRSSVVETIEAPLPLVWSILRSFDKPQAYQRFVKSCTMRSGGGGGKGGEGKGSVRDVTLVSGFPADFSTERLEELDDESHVMVVSIIGGNHRLVNYKSKTKVVASPEDMAKKTVVVESYVVDVPEGTSEEDTIFFVDNIIRYNLTSLAKLTKKMMK
notes: Transiently expressed in Col-0 protoplasts for co-IP; also called c-myc-PYL13; MYC-PYL13; not shown: c-myc tag
B3: PYL13-cLUC (other)
chain: B2 chain
notes: LUC complementation assay in protoplasts; also called PYL13 fused to the C-terminal domain of LUC; not shown: C-terminal domain of firefly luciferase
B4: PYL13 fused to the GAL4-activating domain (AD) (other, not shown: large carriers)
chain: B2 chain
notes: also called AD-PYL13

Key:
PYL13-cLUC = molecular target: B3; assay: firefly luciferase complementation in protoplasts (stronger group)
Description: (§1) To further characterize the interactions between PYL13 and PYLs in vivo, their interactions in protoplasts were examined by the firefly luciferase (LUC) complementation assay. PYL13 was fused to the C-terminal domain of LUC (PYL13-cLUC), and PYLs were fused to the N-terminal domain of LUC (PYLs-nLUC), and co-expressed in protoplasts. After transfection, protoplasts were incubated overnight under light at room temperature, and the LUC activities in living protoplasts were measured. Error bars indicate s.e.m. (n=6). […] PYL13 binds more strongly to PYR1, PYL1-5, PYL7, and PYL10-11 than to PYL6, PYL8-9, or PYL13 (FIG. 5B).

PP2CA-HA = molecular target: T1, PP2CA-HA (Arabidopsis, UniProt P49598 1-399); assay: co-IP from protoplasts with anti-HA agarose, western blot; with or without 10 µM ABA
T1 construct: also called hemagglutinin (HA)-tagged PP2CA; not shown: HA tag
T1 sequence (looked up): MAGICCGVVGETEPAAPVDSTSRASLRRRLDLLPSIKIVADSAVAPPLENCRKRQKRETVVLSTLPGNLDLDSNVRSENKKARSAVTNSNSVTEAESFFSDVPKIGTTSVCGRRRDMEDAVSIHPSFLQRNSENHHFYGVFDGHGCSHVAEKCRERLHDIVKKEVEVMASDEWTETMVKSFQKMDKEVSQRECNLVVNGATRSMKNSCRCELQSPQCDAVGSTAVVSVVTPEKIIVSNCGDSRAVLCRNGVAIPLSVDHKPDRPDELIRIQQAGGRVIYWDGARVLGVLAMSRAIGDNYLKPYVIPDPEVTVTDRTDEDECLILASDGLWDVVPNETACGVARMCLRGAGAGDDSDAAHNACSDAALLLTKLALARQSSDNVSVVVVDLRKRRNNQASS
Description: Coimmunoprecipitation (co-IP) assays using ABI1-HA and PP2CA-HA as baits captured c-myc-PYL13 in an ABA-independent manner (FIG. 3C). The binding of PP2CA with PYL13 again appeared much stronger than that of ABI1 with PYL13. […] Total soluble proteins (input) were extracted from Arabidopsis protoplasts that transiently expressed the indicated constructs. PP2C-interacting proteins were immunoprecipitated with anti-HA mouse antibodies and detected with anti-HA and anti-cMYC rabbit antibodies.
PP2CA-HA, ABI1-HA, and MYC-PYL13 plasmids (20 μg each) were transiently expressed in wild-type (Col-0) protoplasts. After transfection, protoplasts were incubated in WI buffer under light at room temperature for 16.5 h. Protoplasts were treated with 10 μM ABA for 1.5 h before they were harvested, frozen in liquid N2, and stored at −80° C. The frozen protoplasts were resuspended in 1 ml of immunoprecipitation (IP) buffer containing 50 mM Tris-HCl, pH 7.4, 150 mM NaCl, 1 mM EDTA, 0.1% (v/v) Triton X-100, and 1× protease inhibitor cocktail (SIGMA) with or without 10 μM ABA and then centrifuged at 21000 g for 30 min at 4° C. The supernatant was used as input and was incubated for 4 h at 4° C. with 30 μl of monoclonal anti-HA-agarose antibody produced in mouse (SIGMA, A2095). […]

PYL13-nLUC = molecular target: T2, PYL13-nLUC (Arabidopsis thaliana, UniProt Q9SN51 1-164); assay: firefly luciferase complementation in protoplasts (weaker group; PYL13 with itself)
T2 construct: LUC complementation assay in protoplasts; also called PYL13 fused to the N-terminal domain of LUC; not shown: N-terminal domain of firefly luciferase
T2 sequence: B2 chain
Description: as §1

PYL4-nLUC = molecular target: T3, PYL4-nLUC (Arabidopsis thaliana, UniProt O80920 1-207); assay: firefly luciferase complementation in protoplasts (stronger group)
T3 construct: LUC complementation assay in protoplasts; also called PYLs-nLUC; not shown: N-terminal domain of firefly luciferase
T3 sequence: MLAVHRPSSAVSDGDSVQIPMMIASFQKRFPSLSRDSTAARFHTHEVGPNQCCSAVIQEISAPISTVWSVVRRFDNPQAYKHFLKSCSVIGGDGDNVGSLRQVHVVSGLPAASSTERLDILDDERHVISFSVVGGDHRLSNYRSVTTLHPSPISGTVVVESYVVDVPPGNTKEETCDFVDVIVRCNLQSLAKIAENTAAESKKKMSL
Description: as §1

PYR1-nLUC = molecular target: T4, PYR1-nLUC (Arabidopsis thaliana, UniProt O49686 1-191); assay: as above
T4 construct: LUC complementation assay in protoplasts; also called PYLs-nLUC; not shown: N-terminal domain of firefly luciferase
T4 sequence: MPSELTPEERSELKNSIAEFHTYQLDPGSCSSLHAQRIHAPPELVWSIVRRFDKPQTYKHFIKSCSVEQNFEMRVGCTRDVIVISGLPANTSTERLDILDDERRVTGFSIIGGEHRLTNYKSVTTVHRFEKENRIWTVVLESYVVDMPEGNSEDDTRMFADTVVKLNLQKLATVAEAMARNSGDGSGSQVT
Description: as §1

PYL7-nLUC = molecular target: T5, PYL7-nLUC (Arabidopsis thaliana, UniProt Q1ECF1 1-211); assay: as above
T5 construct: LUC complementation assay in protoplasts; also called PYLs-nLUC; not shown: N-terminal domain of firefly luciferase
T5 sequence: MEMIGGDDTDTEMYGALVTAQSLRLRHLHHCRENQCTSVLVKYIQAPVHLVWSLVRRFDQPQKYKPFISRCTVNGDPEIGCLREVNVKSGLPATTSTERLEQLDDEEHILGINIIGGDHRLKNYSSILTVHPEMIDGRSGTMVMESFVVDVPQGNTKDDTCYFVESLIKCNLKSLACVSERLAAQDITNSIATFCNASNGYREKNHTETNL
Description: as §1

PYL10-nLUC = molecular target: T6, PYL10-nLUC (Arabidopsis thaliana, UniProt Q8H1R0 1-183); assay: as above
T6 construct: LUC complementation assay in protoplasts; also called PYLs-nLUC; not shown: N-terminal domain of firefly luciferase
T6 sequence: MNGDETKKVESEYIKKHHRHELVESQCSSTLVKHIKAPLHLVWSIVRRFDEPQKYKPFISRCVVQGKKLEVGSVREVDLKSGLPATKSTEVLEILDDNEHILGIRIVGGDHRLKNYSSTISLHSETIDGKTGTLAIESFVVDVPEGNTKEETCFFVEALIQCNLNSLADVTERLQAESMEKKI
Description: as §1

PYL5-nLUC = molecular target: T7, PYL5-nLUC (Arabidopsis thaliana, UniProt Q9FLB1 1-203); assay: as above
T7 construct: LUC complementation assay in protoplasts; also called PYLs-nLUC; not shown: N-terminal domain of firefly luciferase
T7 sequence: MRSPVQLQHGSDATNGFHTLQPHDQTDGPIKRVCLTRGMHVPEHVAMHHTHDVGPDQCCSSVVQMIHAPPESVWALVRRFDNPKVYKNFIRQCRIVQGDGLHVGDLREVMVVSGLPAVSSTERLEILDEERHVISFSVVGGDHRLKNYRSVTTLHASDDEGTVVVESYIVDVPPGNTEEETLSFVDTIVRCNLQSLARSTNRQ
Description: as §1

PYL3-nLUC = molecular target: T8, PYL3-nLUC (Arabidopsis thaliana, UniProt Q9SSM7 1-209); assay: as above
T8 construct: LUC complementation assay in protoplasts; also called PYLs-nLUC; not shown: N-terminal domain of firefly luciferase
T8 sequence: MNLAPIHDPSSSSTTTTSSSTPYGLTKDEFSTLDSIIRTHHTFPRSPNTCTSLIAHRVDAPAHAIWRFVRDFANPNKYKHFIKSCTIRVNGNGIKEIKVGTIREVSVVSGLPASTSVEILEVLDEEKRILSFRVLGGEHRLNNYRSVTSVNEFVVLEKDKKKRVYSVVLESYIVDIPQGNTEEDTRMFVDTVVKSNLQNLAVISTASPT
Description: as §1

PYL6-nLUC = molecular target: T9, PYL6-nLUC (Arabidopsis thaliana, UniProt Q8S8E3 1-215); assay: firefly luciferase complementation in protoplasts (weaker group)
T9 construct: LUC complementation assay in protoplasts; also called PYLs-nLUC; not shown: N-terminal domain of firefly luciferase
T9 sequence: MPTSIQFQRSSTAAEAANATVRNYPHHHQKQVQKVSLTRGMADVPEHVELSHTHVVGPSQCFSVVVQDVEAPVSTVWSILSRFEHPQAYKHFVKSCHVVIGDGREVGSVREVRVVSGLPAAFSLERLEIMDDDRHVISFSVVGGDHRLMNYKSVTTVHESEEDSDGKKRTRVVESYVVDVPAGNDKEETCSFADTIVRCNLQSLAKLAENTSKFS
Description: as §1

PYL8-nLUC = molecular target: T10, PYL8-nLUC (Arabidopsis thaliana, UniProt Q9FGM1 1-188); assay: as above
T10 construct: LUC complementation assay in protoplasts; also called PYLs-nLUC; not shown: N-terminal domain of firefly luciferase
T10 sequence: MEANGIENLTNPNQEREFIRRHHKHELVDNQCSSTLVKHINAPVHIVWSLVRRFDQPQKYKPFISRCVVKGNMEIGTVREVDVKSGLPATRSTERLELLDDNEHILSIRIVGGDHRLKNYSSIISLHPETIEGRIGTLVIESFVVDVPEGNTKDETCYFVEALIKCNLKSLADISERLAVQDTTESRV
Description: as §1

[1] = molecular target: T11, PYL6 fused to the GAL4-DNA binding domain (BD) (Arabidopsis thaliana, UniProt Q8S8E3 1-215); assay: yeast two-hybrid, growth on media lacking His and His/Ade, with and without ABA
T11 construct: Yeast two-hybrid construct
T11 sequence: T9 sequence
Description: (§2) To confirm the interaction between PYL13 and PYL2/PYL9 and to determine whether PYL13 may bind with other PYLs, the interaction of PYL13 with PYLs was examined in yeast two-hybrid assays, as shown in FIG. 5. In this experiment, PYL13 interacted with PYR1, PYL1-4, PYL6, and PYL11-12 in an ABA-independent manner (FIG. 5A). PYL13 fused to the GAL4-activating domain (AD) was used as prey, and PYLs fused to the GAL4-DNA binding domain (BD) were used as baits. Interaction was determined by growth assay on media lacking His and His/Ade in the presence and absence of ABA. Dilutions (10⁻¹, 10⁻², and 10⁻³) of saturated cultures were spotted onto the plates, which were photographed after five days. […] Without wishing to be bound by theory, the lack of interaction between […] and PYL9 may be caused by the cellular differences between yeast and Arabidopsis or because of indirect interactions between the two proteins in Arabidopsis.

[2] = molecular target: T12, PYR1 fused to the GAL4-DNA binding domain (BD) (Arabidopsis thaliana, UniProt O49686 1-191); assay: as above
T12 construct: Yeast two-hybrid construct
T12 sequence: T4 sequence
Description: as §2

[3] = molecular target: T13, PYL4 fused to the GAL4-DNA binding domain (BD) (Arabidopsis thaliana, UniProt O80920 1-207); assay: as above
T13 construct: Yeast two-hybrid construct
T13 sequence: T3 sequence
Description: as §2

[4] = molecular target: T14, PYL3 fused to the GAL4-DNA binding domain (BD) (Arabidopsis thaliana, UniProt Q9SSM7 1-209); assay: as above
T14 construct: Yeast two-hybrid construct
T14 sequence: T8 sequence
Description: as §2

Measured: binding result

B1
binds: PYL13-cLUC

B2
binds: PP2CA-HA

B3
binds: PYL13-nLUC | PYL4-nLUC | PYR1-nLUC | PYL7-nLUC | PYL10-nLUC | PYL5-nLUC | PYL3-nLUC | PYL6-nLUC | PYL8-nLUC

B4
binds: [1] | [2] | [3] | [4]
